± gives the uncertainty stated by the source.

Our source for the abundance fitness values is the Human Domainome abundance scans (Beltran et al. 2025).

B1: Transcription elongation regulator 1-like protein, residues 448 to 504; numbered along this chain, Q5VWI1 (parent)
chain: LPLEERVTHFRDMLLERGVSAFSTWEKELHKIVFDPRYLLLNSEERKQIFEQFVKTR

The data set covers variants of B1. As to the kind of experiment: abundance fitness (aPCA) (normalised: wild type 0, dead -1); higher = more abundant; growth selection in yeast, the domain comes from the species named. The conditions noted are these: Homo sapiens.
Regarding LPLEERVNHFRDMLLERGVSAFSTWEKELHKIVFDPRYLLLNSEERKQIFEQFVKTR [T8N], the abundance fitness was -0.275 ± 0.17.
LPLEERVQHFRDMLLERGVSAFSTWEKELHKIVFDPRYLLLNSEERKQIFEQFVKTR [T8Q]: the abundance fitness is -0.563 ± 0.41.
For LPLEERVFHFRDMLLERGVSAFSTWEKELHKIVFDPRYLLLNSEERKQIFEQFVKTR [T8F], the abundance fitness is -0.291 ± 0.31.
To LPLEERVIHFRDMLLERGVSAFSTWEKELHKIVFDPRYLLLNSEERKQIFEQFVKTR [T8I] belongs -0.386 ± 0.2; to LPLEERVLHFRDMLLERGVSAFSTWEKELHKIVFDPRYLLLNSEERKQIFEQFVKTR [T8L], -0.471 ± 0.17.
In the case of LPLEERVMHFRDMLLERGVSAFSTWEKELHKIVFDPRYLLLNSEERKQIFEQFVKTR [T8M], the abundance fitness is -0.396 ± 0.43.
Turning to LPLEERVPHFRDMLLERGVSAFSTWEKELHKIVFDPRYLLLNSEERKQIFEQFVKTR [T8P], the abundance fitness was -0.013 ± 0.37.
In the case of LPLEERVSHFRDMLLERGVSAFSTWEKELHKIVFDPRYLLLNSEERKQIFEQFVKTR [T8S], the abundance fitness is -0.149 ± 0.12.
As for LPLEERVCHFRDMLLERGVSAFSTWEKELHKIVFDPRYLLLNSEERKQIFEQFVKTR [T8C], the abundance fitness is -0.372 ± 0.41.
Consider LPLEERVDHFRDMLLERGVSAFSTWEKELHKIVFDPRYLLLNSEERKQIFEQFVKTR [T8D], for which the abundance fitness is -0.45 ± 0.18.
To LPLEERVVHFRDMLLERGVSAFSTWEKELHKIVFDPRYLLLNSEERKQIFEQFVKTR [T8V] belongs -0.287 ± 0.11; to LPLEERVHHFRDMLLERGVSAFSTWEKELHKIVFDPRYLLLNSEERKQIFEQFVKTR [T8H], -0.39 ± 0.14; to LPLEERVGHFRDMLLERGVSAFSTWEKELHKIVFDPRYLLLNSEERKQIFEQFVKTR [T8G], -0.35 ± 0.13.
As to LPLEERVRHFRDMLLERGVSAFSTWEKELHKIVFDPRYLLLNSEERKQIFEQFVKTR [T8R], the abundance fitness is -0.631 ± 0.34.
The result for LPLEERSTHFRDMLLERGVSAFSTWEKELHKIVFDPRYLLLNSEERKQIFEQFVKTR [V7S] reads -0.334 ± 0.24; that for LPLEERLTHFRDMLLERGVSAFSTWEKELHKIVFDPRYLLLNSEERKQIFEQFVKTR [V7L], -0.096 ± 0.15; that for LPLEERETHFRDMLLERGVSAFSTWEKELHKIVFDPRYLLLNSEERKQIFEQFVKTR [V7E], -0.406 ± 0.4.
Take LPLEERHTHFRDMLLERGVSAFSTWEKELHKIVFDPRYLLLNSEERKQIFEQFVKTR [V7H]: the abundance fitness was -0.303 ± 0.22.
For the variant LPLEERWTHFRDMLLERGVSAFSTWEKELHKIVFDPRYLLLNSEERKQIFEQFVKTR [V7W], the abundance fitness is -0.594 ± 0.5.
For the variant LPLEERFTHFRDMLLERGVSAFSTWEKELHKIVFDPRYLLLNSEERKQIFEQFVKTR [V7F], the abundance fitness was 0.022 ± 0.14.
Regarding LPLEERMTHFRDMLLERGVSAFSTWEKELHKIVFDPRYLLLNSEERKQIFEQFVKTR [V7M], the abundance fitness turned out to be 0.434 ± 0.21.
With LPLEERKTHFRDMLLERGVSAFSTWEKELHKIVFDPRYLLLNSEERKQIFEQFVKTR [V7K], the abundance fitness was found to be 0.843 ± 0.13.
LPLEERCTHFRDMLLERGVSAFSTWEKELHKIVFDPRYLLLNSEERKQIFEQFVKTR [V7C]: the abundance fitness is -0.568 ± 0.2.
As to LPLEERTTHFRDMLLERGVSAFSTWEKELHKIVFDPRYLLLNSEERKQIFEQFVKTR [V7T], the abundance fitness is -0.34 ± 0.094.
Consider LPLEERITHFRDMLLERGVSAFSTWEKELHKIVFDPRYLLLNSEERKQIFEQFVKTR [V7I], for which the abundance fitness worked out at 0.199 ± 0.16.
The result for LPLEERGTHFRDMLLERGVSAFSTWEKELHKIVFDPRYLLLNSEERKQIFEQFVKTR [V7G] reads -0.407 ± 0.14; that for LPLEERATHFRDMLLERGVSAFSTWEKELHKIVFDPRYLLLNSEERKQIFEQFVKTR [V7A], 0.039 ± 0.16.
To LPLEERYTHFRDMLLERGVSAFSTWEKELHKIVFDPRYLLLNSEERKQIFEQFVKTR [V7Y] belongs -0.075 ± 0.35; to LPLEEWVTHFRDMLLERGVSAFSTWEKELHKIVFDPRYLLLNSEERKQIFEQFVKTR [R6W], -0.774 ± 0.38.
On to LPLEENVTHFRDMLLERGVSAFSTWEKELHKIVFDPRYLLLNSEERKQIFEQFVKTR [R6N], for which the abundance fitness was -0.485 ± 0.2.
Regarding LPLEEEVTHFRDMLLERGVSAFSTWEKELHKIVFDPRYLLLNSEERKQIFEQFVKTR [R6E], the abundance fitness was -1.01 ± 0.44.
For LPLEEKVTHFRDMLLERGVSAFSTWEKELHKIVFDPRYLLLNSEERKQIFEQFVKTR [R6K], the abundance fitness was -0.485 ± 0.15.
For LPLEEQVTHFRDMLLERGVSAFSTWEKELHKIVFDPRYLLLNSEERKQIFEQFVKTR [R6Q], the abundance fitness was -0.744 ± 0.29.
LPLEEVVTHFRDMLLERGVSAFSTWEKELHKIVFDPRYLLLNSEERKQIFEQFVKTR [R6V]: the abundance fitness is -0.701 ± 0.18.
Regarding LPLEETVTHFRDMLLERGVSAFSTWEKELHKIVFDPRYLLLNSEERKQIFEQFVKTR [R6T], the abundance fitness is -0.772 ± 0.28.
To LPLEEAVTHFRDMLLERGVSAFSTWEKELHKIVFDPRYLLLNSEERKQIFEQFVKTR [R6A] belongs 0.062 ± 0.2.
With LPLEEMVTHFRDMLLERGVSAFSTWEKELHKIVFDPRYLLLNSEERKQIFEQFVKTR [R6M], the abundance fitness is -0.266 ± 0.47.
For the variant LPLEEFVTHFRDMLLERGVSAFSTWEKELHKIVFDPRYLLLNSEERKQIFEQFVKTR [R6F], the abundance fitness is -0.292 ± 0.41.
The result for LPLEESVTHFRDMLLERGVSAFSTWEKELHKIVFDPRYLLLNSEERKQIFEQFVKTR [R6S] reads -0.832 ± 0.34; that for LPLEEGVTHFRDMLLERGVSAFSTWEKELHKIVFDPRYLLLNSEERKQIFEQFVKTR [R6G], -0.894 ± 0.23.
In the case of LPLEWRVTHFRDMLLERGVSAFSTWEKELHKIVFDPRYLLLNSEERKQIFEQFVKTR [E5W], the abundance fitness is -0.715 ± 0.39.
Regarding LPLEVRVTHFRDMLLERGVSAFSTWEKELHKIVFDPRYLLLNSEERKQIFEQFVKTR [E5V], the abundance fitness was -0.416 ± 0.097.
Take LPLEYRVTHFRDMLLERGVSAFSTWEKELHKIVFDPRYLLLNSEERKQIFEQFVKTR [E5Y]: the abundance fitness is -0.483 ± 0.24.
Consider LPLESRVTHFRDMLLERGVSAFSTWEKELHKIVFDPRYLLLNSEERKQIFEQFVKTR [E5S], for which the abundance fitness was -0.375 ± 0.19.
To LPLERRVTHFRDMLLERGVSAFSTWEKELHKIVFDPRYLLLNSEERKQIFEQFVKTR [E5R] belongs -0.01 ± 0.17.
With LPLEQRVTHFRDMLLERGVSAFSTWEKELHKIVFDPRYLLLNSEERKQIFEQFVKTR [E5Q], the abundance fitness is -0.357 ± 0.31.
For LPLETRVTHFRDMLLERGVSAFSTWEKELHKIVFDPRYLLLNSEERKQIFEQFVKTR [E5T], the abundance fitness is -0.553 ± 0.46.
